From publication PMC8588562, “Layer-by-Layer Encapsulation of Herbicide-Degrading Bacteria for Improved Surface Properties and Compatibility in Soils” (Polymers, 2021)

Tested on: CCNc1nc(Cl)nc(NC(C)C)n1
Assay: cells, lysate or membranes
Conditions: apparent, whole uncoated E. coli cells (free cells), PBS (0.1 M, pH 7.4), room temperature, 20 min, 2.5 mg/mL cells, ATZ 1-20 mg/L

With “atrazine chlorohydrolase (AtzA) (Pseudomonas sp. ADP)” the Km was 89.12 ± 29.48 µM.
